Measured values published in article PMC11437124 (Nature Communications, 2024).
Positions count from the first letter of the chain named.

B1: hu3.10C2 G106hD (antibody, V domains shown)
VH: EVQLVESGGGLVQPGGSLKLSCATSGFPFSNVWMHWVRQASGKGLEWIAHIKAKSDNYATYYAESVKGRFTISRDDSKTTIYLQMNSLKTEDTAVYYCTDLDYWGQGTTVTVSS
VL: DVVMTQSPLSLPVTPGEPASISCRSSRSLLTSKGITSLYWYLQKPGQSPQLLIYRMSNLASGIPDRFSGSGSGTDFTLKISRVEAEDVGVYYCAQFLVYPYTFGPGTKVEIK
B2: hu3.10C2 G106hD/I107h insertion/D116hE (antibody, V domains shown)
VH: EVQLVESGGGLVQPGGSLKLSCATSGFPFSNVWMHWVRQASGKGLEWIAHIKAKSDNYATYYAESVKGRFTISRDDSKTTIYLQMNSLKTEDTAVYYCTDILEYWGQGTTVTVSS
VL: B1 VL
B3: hu3.10C2 I107h insertion (antibody, V domains shown)
VH: B2 VH with D100G, E103D
VL: B1 VL
B4: hu3.10C2 D116hE (antibody, V domains shown)
VH: B1 VH with D100G, D102E
VL: B1 VL
B5: hu3.10C2 G106hD/D116hE (antibody, V domains shown)
VH: B1 VH with D102E
VL: B1 VL
B6: hu3.10C2 I107h insertion/D116hE (antibody, V domains shown)
VH: B2 VH with D100G
VL: B1 VL
B7: antibody 3.27H7 (antibody, V domains shown)
VH: EVQLVETGGSLVQPGGSLKLTCATSGFPFSNVWLHWIRRSPEKQLEWVAQIKARSDNYATYYAESVKGRFIVSRDDSKTTIYLQMNNLKEEDTAIYYCTGLDYWGQGVMVTVSS
VL: DVVLTQAPLSVSVTPGESASISCRSSRSLLTSKGITSLYWYLQKPGMSPHLLIYRMSNLASGIPDRFSGSGSETDFTLKISEVEPEDVGVYYCAQFLVYPYTFGAGTKLELK
B8: antibody 3.22B9 (antibody, V domains shown)
VH: AVQVVESGGGLVQPKGSLKISCAVSGFTFSDAAMHWVRQAPGKGLEWVARIRTKPNSYATYYADSVKGRFIISRDDSKNMVYLQMDNLKIEDTAMYYCTAGTTTAPFDYWGQGVMVTVSS
VL: DIVMIQSPSSVAVSAGETVTINCKSSQSLLYSGDHKNYLAWFQQKPGQSPKLLIYWASTRLSDVPDRVIGSGSGTDFTLTISSVQAEDLATYYCQQYYDTPLTFGSGTKVEIK
B9: antibody 3.18E5 (antibody, V domains shown)
VH: EVQLVETGGSLVQPGKSLKLTCATSGFPFSNVWMHWVRQSPEKQLEWIAHIKAKSDNYATYYAESVKGRFTISRDDSKTTIYLQMNSLKEADTAIYYCTGLDYWGQGVMVTVSS
VL: DTVLTQAPLSVSVTPGESASISCRSNKSLLGIRDITSLYWYLQKPGKSPQLLIYRMSNLASGVPDRFSGSGSETDFTLKISEVETEDVGVYYCAQFLRYPYTFGPGTKLELK
B10: antibody 3.50G1 (antibody, V domains shown)
VH: B9 VH with T80S, E90D, A91D
VL: B9 VL with Y41F, K112Q
B11: antibody 3.41B10 (antibody, V domains shown)
VH: AVQLVESGGGLVQPKESLKISCEASGFTFTNAAMNWVRQAPGKGLEWVARIRTKPNNYRTYYADSVRGRFTISRDDSKSMVHLQMDNLKTEDTAMYYCTGEGPQGGFVYWGQGTLVTVSS
VL: DIVMTQSPSSLTVSAGGTVTINCKSSQSLLYSGDRKNYLAWYQQKPGQSPKLLIYWSSTRQSGVPDRFIGSGSGTDFTLTISSVQAEDLAIYYCQQYYDSPLTFGSGTKLDIK
B12: 3.10A7 (antibody, V domains shown)
VH: AVQLVESGGGLVQPKESLKISCAASGITFSNAAMFWVRQAPGKGLEWVARIRTKPNNYATNYADSVKGRFTISRDDSKSMVYLQMDNLKTEDTAMYYCTAGTTVVPFDYWGQGVMVTVSS
VL: B11 VL with T12A, G17E, N22D, D34N, R35Q, N37T, S57A, S100T, D111E
B13: R18-12-25 (antibody, V domains shown)
VH: AVQLVESGGGLVRPQESLKISCAASGFTFRDTAMYWVRQAPGKGLEWVARIRTKPNDYATYFADSVKGRFTISRDDSKSMVYLQMDTLKTEDTAMYYCTAPINNWDWFAYWGQGTLVTVSS
VL: B11 VL with T12A, G17E, N22D, D34N, R35Q, N37T, S57A, S100T, D111E
B14: R18-13-29 (antibody, V domains shown)
VH: AVQLVESGGGLVQPKESLKVSCAASGFTFSNADIYWVRQAPGKGLEWVARIRTKPNNYATYYGDSVKGRFTISRDDSKSMVYLQMDNLKTEDTAMYYCTAGEGLWVNYFDYWGQGVMVTVSS
VL: B11 VL with T12A, G17E, N22D, D34N, R35Q, N37T, S57A, S100T, D111E
B15: R19-11-36 (antibody, V domains shown)
VH: AVQLVESGGGLVQPKESLKISCAAAGFTFTSAAMYWVRQAPGKGLEWIARIRTKADNIATNYADSVKGRFTISRDDSKNMVYLQMDDLKTEDTAMYYCTAGITTGGFEYWGQGVMVTVSS
VL: B11 VL with T12A, G17E, N22D, D34N, R35Q, N37T, S57A, S100T, D111E
B16: R18-13-28 (antibody, V domains shown)
VH: AVQLVESGGGLVQPKESLKISCAASGFTFSNAAMYWVRQAPGKGLEWVARIRTKTNNYATNYADSVKGRFTISRDDSKSMVYLQMDNLKTEDTAMYYCSAARGGWYLWLDYWGQGVMVTVAS
VL: B11 VL with T12A, G17E, N22D, D34N, R35Q, N37T, S57A, S100T, D111E
B17: R18-13-30 (antibody, V domains shown)
VH: AVQLVESGGGLVQPKESLKVSCAASGFTFSHAAMYWVRQAPGKGLEWVARITTEPNNYATNYADSVKGRFTISRDDSKSMVFLQMDNMKTEDTAMYYCTAEVRVYPYYFDYWGQGVMVTVSS
VL: B11 VL with T12A, G17E, N22D, D34N, R35Q, N37T, S57A, S100T, D111E
B18: R19-11-42 (antibody, V domains shown)
VH: AVQLVESGGGLVHPQESLKISCLASGLSFSSAAMYWVRQVPGKGLEWLARIRTKPNNYATFYADSVKGRFTISRDDSKSMVFLQMDDLNTEDTAIYYCTASVFTVAFEYWGQGVMVTVSS
VL: B11 VL with T12A, G17E, N22D, D34N, R35Q, N37T, S57A, S100T, D111E
B19: R19-11-40 (antibody, V domains shown)
VH: AVQLVESGGGLVQPKESLKISCAASGFTFSNAAMFWVRQAPGEGLEWVARIRTKPNSYATYYADSVKGRFTISRDDSKSMVYLQMDNLKTEDTAMYYCTADYPGMGFDSWGQGVMVTVSS
VL: B11 VL with T12A, G17E, N22D, D34N, R35Q, N37T, S57A, S100T, D111E
B20: 3.21B10 (antibody, V domains shown)
VH: AVQLIESGGGLVQPKGSLKISCAASGFTFSDAAMFWVRQAPGKGLEWIARIRTKPNNYATYYADSVRGRFTISRDDSKSMVYLQMDNLKTDDTAMYYCIEGVNYGGSPFVYWGQGTLVTVSS
VL: B11 VL with T12A, G17E, D34N, R35Q, N37S, S57A, G72V, S100I, L110V, D111E
B21: R19-11-37 (antibody, V domains shown)
VH: B19 VH with F35Y, E43K, S57N, T99I, D101S, Y102R, P103Y, M105Y, G106D, S109Y
VL: B11 VL with T12A, G17E, N22D, D34N, R35Q, N37T, S57A, S100T, D111E
B22: R18-13-32 (antibody, V domains shown)
VH: AVQLVESGGGLVQPKESLKISCAASGFTFSYAAMYWVRQAPGKGLEWVARIRSKPNNYATYYADSVKGRFTISRDDSKSMVYLQMDNLKTEDTAMYYCTAPYYYDGSPFEYWGQGVMVTVSS
VL: B11 VL with T12A, G17E, N22D, D34N, R35Q, N37T, S57A, S100T, D111E
B23: R19-11-38 (antibody, V domains shown)
VH: B19 VH with F35Y, E43K, S57N, D101A, Y102F, P103Y, M105Y, G106Y, S109Y
VL: B11 VL with T12A, G17E, N22D, D34N, R35Q, N37T, S57A, S100T, D111E
B24: R18-13-27 (antibody, V domains shown)
VH: AVQLVESGGGLVQPKESLKISCAASGFTFSNAAMYWVRQAPGKGLEWVARIRTKPNYHATYYADSVKGRFTISRDDSKSMVYLQMDNLKAEDTAIYYCAASVLYTADSLDYWGQGVMVTVSS
VL: B11 VL with T12A, G17E, N22D, D34N, R35Q, N37T, S57A, S100T, D111E
B25: R19-11-41 (antibody, V domains shown)
VH: B12 VH with I27F, F35Y, N61Y, G101E, T102G, T103I, V104T, V105T, P106W
VL: B11 VL with T12A, G17E, N22D, D34N, R35Q, N37T, S57A, S100T, D111E
B26: R18-13-31 (antibody, V domains shown)
VH: AVQLVESGGGLVQPIESLKISCAASGFTFTNAAMYWVRQAPGKGLEWIARIRTKPNDYATYYADSVKGRFTISRDDSESVVYLQMDNLKTEDTATYYCTAAWDYYSSAFDYWGQGVMVTVSS
VL: B11 VL with T12A, G17E, N22D, D34N, R35Q, N37T, S57A, S100T, D111E
B27: R18-13-35 (antibody, V domains shown)
VH: AVQLVESGGGLVQPRESLKISCAASGFTFSNAAMYWVRQAPGKGLEWVARIRTKANNYATNYADSLKGRFIISRDDSKSVVYLQMGNLKPEDTAMYYCTAGDTMGPHWFVYWGQGTLVTVSS
VL: B11 VL with T12A, G17E, N22D, D34N, R35Q, N37T, S57A, S100T, D111E

Biological target: T1, human TREM2 extracellular domain (ECD) (Homo sapiens, UniProt Q9NZC2)
Assay: SPR
Target sequence in this assay (Q9NZC2 19-174): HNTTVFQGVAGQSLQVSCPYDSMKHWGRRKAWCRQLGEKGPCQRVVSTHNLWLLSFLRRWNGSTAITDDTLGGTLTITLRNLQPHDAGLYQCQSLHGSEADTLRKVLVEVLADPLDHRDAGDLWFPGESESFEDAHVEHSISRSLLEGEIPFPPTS

binding result | Binder
binds | B1
binds | B2
binds | B3
binds | B4
binds | B5
binds | B6

Biological target: T2, human TREM2 on live cells (Homo sapiens, UniProt Q9NZC2)
Assay: flow cytometry on cells

binding result | Binder
binds | B7
binds | B8
binds | B9
binds | B10
binds | B11

Biological target: T1, human TREM2 extracellular domain (ECD)
Assay: not given

binding result | Binder
binds | B12
binds | B13
binds | B14
binds | B15
binds | B16
binds | B17
binds | B18
binds | B19
binds | B20
binds | B21
binds | B22
binds | B23
binds | B24
binds | B25
binds | B26
binds | B27

Biological target: T2, human TREM2 on live cells
Assay: not given

binding result | Binder
binds | B12
binds | B20
